Measured values: the supplement of paper PMC6757056
± gives the standard deviation of the averaged measurements.

B1: library; a variant is named by its letters at N, in order (parent)
chain: GCUGUCACCGGUGUAUUACCCUAGUGGUCGACCGGUCUGAUGAGUCUNNNNNNAGACGAAACAGC

Tests used:
hypoxanthine [1] = variants of: B1; experiment: normalized RNA/DNA level with ligand (relative to sTRSVctl = 100) (log10 (% of sTRSVctl)); ligand: hypoxanthine (xanthine aptamer); higher = less ribozyme self-cleavage, higher mRNA level; conditions: ligand concentration (+) RNA-Seq: 5 mM, HEK293T, reporter: mCherry (pCS4076), ligand present: yes
Procedure, shortened: (§1)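 RNA level was computed as RNA reads over DNA reads divided by a spiked-in non-cleaving sequence or by the top sequences, then scaled and log-transformed. Scaling was ×100 with log10, the top group was 25 sequences, and the threshold was ≥100 DNA reads. The reads came from HEK293T cells transfected at 4 µg per 6-well well with ribozyme switch library plasmids (mCherry, or eGFP in some ligand experiments). Total RNA was extracted with EDTA 72 h after transfection, with any ligand added 1 h before it.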

hypoxanthine [2] = variants of: B1; experiment: normalized RNA/DNA level without ligand (relative to sTRSVctl = 100) (log10 (% of sTRSVctl)); ligand: hypoxanthine (xanthine aptamer); higher = less ribozyme self-cleavage, higher mRNA level; conditions: HEK293T, reporter: mCherry (pCS4076), ligand present: no
Procedure, shortened: as §1

Variant: UCUAUU
- normalized RNA/DNA level with ligand (log10) (hypoxanthine [1]): 1.93 ± 0.057
- normalized RNA/DNA level without ligand (log10) (hypoxanthine [2]): 1.86 ± 0.023

Variant: CCGCCC
- normalized RNA/DNA level with ligand (log10) (hypoxanthine [1]): 2.025 ± 0.013
- normalized RNA/DNA level without ligand (log10) (hypoxanthine [2]): 1.99 ± 0.044

Variant: CCGCCA
- normalized RNA/DNA level with ligand (log10) (hypoxanthine [1]): 1.97 ± 0.045
- normalized RNA/DNA level without ligand (log10) (hypoxanthine [2]): 1.94 ± 0.053

Variant: CCGCCU
- normalized RNA/DNA level with ligand (log10) (hypoxanthine [1]): 1.94 ± 0.025
- normalized RNA/DNA level without ligand (log10) (hypoxanthine [2]): 1.95 ± 0.051

Variant: CCGCCG
- normalized RNA/DNA level with ligand (log10) (hypoxanthine [1]): 1.956 ± 0.016
- normalized RNA/DNA level without ligand (log10) (hypoxanthine [2]): 1.66 ± 0.037

Variant: ACGCUU
- normalized RNA/DNA level with ligand (log10) (hypoxanthine [1]): 1.907 ± 0.016
- normalized RNA/DNA level without ligand (log10) (hypoxanthine [2]): 1.5 ± 0.022

Variant: ACGCUC
- normalized RNA/DNA level with ligand (log10) (hypoxanthine [1]): 2.02 ± 0.048
- normalized RNA/DNA level without ligand (log10) (hypoxanthine [2]): 1.908 ± 0.0022

Variant: ACGCUA
- normalized RNA/DNA level with ligand (log10) (hypoxanthine [1]): 1.948 ± 0.0038
- normalized RNA/DNA level without ligand (log10) (hypoxanthine [2]): 1.69 ± 0.063

Variant: ACGUCU
- normalized RNA/DNA level with ligand (log10) (hypoxanthine [1]): 1.95 ± 0.042
- normalized RNA/DNA level without ligand (log10) (hypoxanthine [2]): 1.65 ± 0.066

Variant: ACGUCC
- normalized RNA/DNA level with ligand (log10) (hypoxanthine [1]): 1.957 ± 0.0037
- normalized RNA/DNA level without ligand (log10) (hypoxanthine [2]): 1.847 ± 0.015

Variant: ACGUCG
- normalized RNA/DNA level with ligand (log10) (hypoxanthine [1]): 1.88 ± 0.041
- normalized RNA/DNA level without ligand (log10) (hypoxanthine [2]): 1.41 ± 0.11

Variant: ACGUCA
- normalized RNA/DNA level with ligand (log10) (hypoxanthine [1]): 1.94 ± 0.038
- normalized RNA/DNA level without ligand (log10) (hypoxanthine [2]): 1.64 ± 0.032

Variant: GCGUGC
- normalized RNA/DNA level with ligand (log10) (hypoxanthine [1]): 1.949 ± 0.016
- normalized RNA/DNA level without ligand (log10) (hypoxanthine [2]): 1.619 ± 0.006

Variant: CCUAGA
- normalized RNA/DNA level with ligand (log10) (hypoxanthine [1]): 1.962 ± 0.016
- normalized RNA/DNA level without ligand (log10) (hypoxanthine [2]): 1.84 ± 0.057

Variant: CCUAGC
- normalized RNA/DNA level with ligand (log10) (hypoxanthine [1]): 1.91 ± 0.08
- normalized RNA/DNA level without ligand (log10) (hypoxanthine [2]): 1.842 ± 0.0069

Variant: CCUAGU
- normalized RNA/DNA level with ligand (log10) (hypoxanthine [1]): 1.919 ± 0.0097
- normalized RNA/DNA level without ligand (log10) (hypoxanthine [2]): 1.872 ± 0.013

Variant: CCUAGG
- normalized RNA/DNA level with ligand (log10) (hypoxanthine [1]): 1.86 ± 0.055
- normalized RNA/DNA level without ligand (log10) (hypoxanthine [2]): 1.77 ± 0.046

Variant: GCGGCC
- normalized RNA/DNA level with ligand (log10) (hypoxanthine [1]): 2 ± 0.046
- normalized RNA/DNA level without ligand (log10) (hypoxanthine [2]): 1.76 ± 0.076

Variant: GCGGCU
- normalized RNA/DNA level with ligand (log10) (hypoxanthine [1]): 1.971 ± 0.0061
- normalized RNA/DNA level without ligand (log10) (hypoxanthine [2]): 1.84 ± 0.04

Variant: GCGGCA
- normalized RNA/DNA level with ligand (log10) (hypoxanthine [1]): 1.94 ± 0.055
- normalized RNA/DNA level without ligand (log10) (hypoxanthine [2]): 1.7 ± 0.052

Variant: UCGCCC
- normalized RNA/DNA level with ligand (log10) (hypoxanthine [1]): 1.981 ± 0.01
- normalized RNA/DNA level without ligand (log10) (hypoxanthine [2]): 1.99 ± 0.069

Variant: UCGCCG
- normalized RNA/DNA level with ligand (log10) (hypoxanthine [1]): 2 ± 0.035
- normalized RNA/DNA level without ligand (log10) (hypoxanthine [2]): 1.841 ± 0.008

Variant: UCGCCA
- normalized RNA/DNA level with ligand (log10) (hypoxanthine [1]): 2.016 ± 0.0013
- normalized RNA/DNA level without ligand (log10) (hypoxanthine [2]): 1.81 ± 0.034

Variant: GCGAGC
- normalized RNA/DNA level with ligand (log10) (hypoxanthine [1]): 1.81 ± 0.034
- normalized RNA/DNA level without ligand (log10) (hypoxanthine [2]): 1.37 ± 0.079

Variant: ACGAAC
- normalized RNA/DNA level with ligand (log10) (hypoxanthine [1]): 1.89 ± 0.036
- normalized RNA/DNA level without ligand (log10) (hypoxanthine [2]): 1.58 ± 0.017

Variant: GCGAUA
- normalized RNA/DNA level with ligand (log10) (hypoxanthine [1]): 1.88 ± 0.083
- normalized RNA/DNA level without ligand (log10) (hypoxanthine [2]): 1.594 ± 0.0079

Variant: CCGUGC
- normalized RNA/DNA level with ligand (log10) (hypoxanthine [1]): 1.9 ± 0.057
- normalized RNA/DNA level without ligand (log10) (hypoxanthine [2]): 1.54 ± 0.08

Variant: CCGAAU
- normalized RNA/DNA level with ligand (log10) (hypoxanthine [1]): 1.9 ± 0.083
- normalized RNA/DNA level without ligand (log10) (hypoxanthine [2]): 1.66 ± 0.028

Variant: CCGAAC
- normalized RNA/DNA level with ligand (log10) (hypoxanthine [1]): 1.9 ± 0.019
- normalized RNA/DNA level without ligand (log10) (hypoxanthine [2]): 1.606 ± 0.0099

Variant: ACGGUC
- normalized RNA/DNA level with ligand (log10) (hypoxanthine [1]): 1.94 ± 0.039
- normalized RNA/DNA level without ligand (log10) (hypoxanthine [2]): 1.87 ± 0.0091

Variant: ACGGUG
- normalized RNA/DNA level with ligand (log10) (hypoxanthine [1]): 1.8673 ± 0.00056
- normalized RNA/DNA level without ligand (log10) (hypoxanthine [2]): 1.24 ± 0.062

Variant: ACGGUU
- normalized RNA/DNA level with ligand (log10) (hypoxanthine [1]): 1.84 ± 0.024
- normalized RNA/DNA level without ligand (log10) (hypoxanthine [2]): 1.36 ± 0.064

Variant: UCUCAC
- normalized RNA/DNA level with ligand (log10) (hypoxanthine [1]): 2 ± 0.055
- normalized RNA/DNA level without ligand (log10) (hypoxanthine [2]): 1.77 ± 0.047

Variant: UCUCAA
- normalized RNA/DNA level with ligand (log10) (hypoxanthine [1]): 1.92 ± 0.055
- normalized RNA/DNA level without ligand (log10) (hypoxanthine [2]): 1.679 ± 0.0047

Variant: GCGCGU
- normalized RNA/DNA level with ligand (log10) (hypoxanthine [1]): 1.92 ± 0.064
- normalized RNA/DNA level without ligand (log10) (hypoxanthine [2]): 1.58 ± 0.12

Variant: GCGCGC
- normalized RNA/DNA level with ligand (log10) (hypoxanthine [1]): 1.93 ± 0.082
- normalized RNA/DNA level without ligand (log10) (hypoxanthine [2]): 1.68 ± 0.026

Variant: GCGCGA
- normalized RNA/DNA level with ligand (log10) (hypoxanthine [1]): 1.844 ± 0.0031
- normalized RNA/DNA level without ligand (log10) (hypoxanthine [2]): 1.51 ± 0.025

Variant: GCGUAA
- normalized RNA/DNA level with ligand (log10) (hypoxanthine [1]): 1.83 ± 0.035
- normalized RNA/DNA level without ligand (log10) (hypoxanthine [2]): 1.49 ± 0.054

Variant: CCGUAG
- normalized RNA/DNA level with ligand (log10) (hypoxanthine [1]): 1.82 ± 0.024
- normalized RNA/DNA level without ligand (log10) (hypoxanthine [2]): 1.35 ± 0.099

Variant: CCGUAU
- normalized RNA/DNA level with ligand (log10) (hypoxanthine [1]): 1.91 ± 0.033
- normalized RNA/DNA level without ligand (log10) (hypoxanthine [2]): 1.749 ± 0.0044

Variant: CCGUAA
- normalized RNA/DNA level with ligand (log10) (hypoxanthine [1]): 1.95 ± 0.098
- normalized RNA/DNA level without ligand (log10) (hypoxanthine [2]): 1.67 ± 0.1

Variant: CCGUAC
- normalized RNA/DNA level with ligand (log10) (hypoxanthine [1]): 1.92 ± 0.047
- normalized RNA/DNA level without ligand (log10) (hypoxanthine [2]): 1.66 ± 0.037

Variant: GCGCUA
- normalized RNA/DNA level with ligand (log10) (hypoxanthine [1]): 1.88 ± 0.067
- normalized RNA/DNA level without ligand (log10) (hypoxanthine [2]): 1.68 ± 0.031

Variant: GCGCUC
- normalized RNA/DNA level with ligand (log10) (hypoxanthine [1]): 1.919 ± 0.015
- normalized RNA/DNA level without ligand (log10) (hypoxanthine [2]): 1.64 ± 0.052

Variant: GCGCUG
- normalized RNA/DNA level with ligand (log10) (hypoxanthine [1]): 1.86 ± 0.028
- normalized RNA/DNA level without ligand (log10) (hypoxanthine [2]): 1.36 ± 0.03

Variant: GCGCUU
- normalized RNA/DNA level with ligand (log10) (hypoxanthine [1]): 1.96 ± 0.065
- normalized RNA/DNA level without ligand (log10) (hypoxanthine [2]): 1.76 ± 0.046

Variant: ACGCAC
- normalized RNA/DNA level with ligand (log10) (hypoxanthine [1]): 1.89 ± 0.022
- normalized RNA/DNA level without ligand (log10) (hypoxanthine [2]): 1.7 ± 0.041

Variant: CCCUUU
- normalized RNA/DNA level with ligand (log10) (hypoxanthine [1]): 2 ± 0.059
- normalized RNA/DNA level without ligand (log10) (hypoxanthine [2]): 1.938 ± 0.0021

Variant: CCCUUG
- normalized RNA/DNA level with ligand (log10) (hypoxanthine [1]): 1.984 ± 0.013
- normalized RNA/DNA level without ligand (log10) (hypoxanthine [2]): 1.84 ± 0.045

Variant: CCUCAU
- normalized RNA/DNA level with ligand (log10) (hypoxanthine [1]): 1.97 ± 0.078
- normalized RNA/DNA level without ligand (log10) (hypoxanthine [2]): 1.87 ± 0.02

Variant: CCUCAA
- normalized RNA/DNA level with ligand (log10) (hypoxanthine [1]): 1.929 ± 0.0046
- normalized RNA/DNA level without ligand (log10) (hypoxanthine [2]): 1.84 ± 0.025

Variant: CCUCAC
- normalized RNA/DNA level with ligand (log10) (hypoxanthine [1]): 1.99 ± 0.027
- normalized RNA/DNA level without ligand (log10) (hypoxanthine [2]): 2.07 ± 0.14

Variant: ACUCAG
- normalized RNA/DNA level with ligand (log10) (hypoxanthine [1]): 1.89 ± 0.04
- normalized RNA/DNA level without ligand (log10) (hypoxanthine [2]): 1.529 ± 0.0011

Variant: ACUCAC
- normalized RNA/DNA level with ligand (log10) (hypoxanthine [1]): 1.994 ± 0.0082
- normalized RNA/DNA level without ligand (log10) (hypoxanthine [2]): 1.97 ± 0.013

Variant: ACUCAA
- normalized RNA/DNA level with ligand (log10) (hypoxanthine [1]): 1.92 ± 0.073
- normalized RNA/DNA level without ligand (log10) (hypoxanthine [2]): 1.748 ± 0.0042

Variant: CCGGGU
- normalized RNA/DNA level with ligand (log10) (hypoxanthine [1]): 2.04 ± 0.054
- normalized RNA/DNA level without ligand (log10) (hypoxanthine [2]): 1.93 ± 0.15

Variant: CCGGGG
- normalized RNA/DNA level with ligand (log10) (hypoxanthine [1]): 1.83 ± 0.057
- normalized RNA/DNA level without ligand (log10) (hypoxanthine [2]): 1.34 ± 0.084

Variant: CCGUCC
- normalized RNA/DNA level with ligand (log10) (hypoxanthine [1]): 1.98 ± 0.067
- normalized RNA/DNA level without ligand (log10) (hypoxanthine [2]): 1.91 ± 0.057
